# Source: US20230357429A1 (JANUX THERAPEUTICS, published 2023)
# Where a chain is given by its changes, count along the chain named. Numbers in names are those of the source. Read-outs that look alike come from different tables or passages of the source.
# T1: Human TROP2 Full length (human, UniProt P09758 31-323)
# T1 sequence: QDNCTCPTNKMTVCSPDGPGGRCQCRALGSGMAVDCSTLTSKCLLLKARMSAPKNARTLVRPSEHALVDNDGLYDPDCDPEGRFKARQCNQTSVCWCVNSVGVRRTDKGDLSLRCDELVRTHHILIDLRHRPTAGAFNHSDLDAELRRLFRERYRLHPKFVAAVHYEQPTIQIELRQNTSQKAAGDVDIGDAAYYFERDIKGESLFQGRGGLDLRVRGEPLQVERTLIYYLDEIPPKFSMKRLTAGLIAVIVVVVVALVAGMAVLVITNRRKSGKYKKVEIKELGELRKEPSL
# T2: Cyno TROP2 Full length (cynomolgus monkey, UniProt P09758 31-323 (human entry))
# T2 chain: T1 sequence with M32V, S63N, I200V, M262V, T268S
# T3: Human TROP2 ECD (31-274 AA), biotinylated (human, UniProt P09758 31-274, biotinylated (site not stated))
# T3 construct: also called tumor-associated calcium signal transducer 2; Human TROP2-biotin
# T3 sequence: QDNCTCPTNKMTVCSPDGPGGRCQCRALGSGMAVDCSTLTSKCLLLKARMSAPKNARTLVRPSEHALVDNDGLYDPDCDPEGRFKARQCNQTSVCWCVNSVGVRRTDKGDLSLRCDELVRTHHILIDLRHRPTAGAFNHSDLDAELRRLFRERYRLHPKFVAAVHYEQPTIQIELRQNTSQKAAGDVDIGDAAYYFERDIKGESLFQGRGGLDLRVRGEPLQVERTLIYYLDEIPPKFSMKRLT
# B1: PC-47 (bispecific antibody)
# light: GGVDFCGLYHWPICYQGGGGSGGGGGSGGGGSGGASSGAGGSDIQLTQSPSSLSASVGDRVSITCKASQDVSIAVAWYQQKPGKAPKLLIYSASYRYTGVPDRFSGSGSGTDFTLTISSLQPEDFAVYYCQQHYITPLTFGAGTKVEIKRTVAAPSVFIFPPSDEQLKSGTASVVCLLNNFYPREAKVQWKVDNALQSGNSQESVTEQDSKDSTYSLSSTLTLSKADYEKHKVYACEVTHQGLSSPVTKSFNRGEC
# heavy: not shown
# B2: PC-31 (bispecific antibody)
# light: GGVDFCGLYHWPICYQGGGGSGGLSGRSDAGSPLGLAGSGGSDIQLTQSPSSLSASVGDRVSITCKASQDVSIAVAWYQQKPGKAPKLLIYSASYRYTGVPDRFSGSGSGTDFTLTISSLQPEDFAVYYCQQHYITPLTFGAGTKVEIKRTVAAPSVFIFPPSDEQLKSGTASVVCLLNNFYPREAKVQWKVDNALQSGNSQESVTEQDSKDSTYSLSSTLTLSKADYEKHKVYACEVTHQGLSSPVTKSFNRGEC
# heavy: not shown
# B3: PC-32 (bispecific antibody)
# light: B2 light
# heavy: not shown
# B4: PC-13 (bispecific antibody)
# light: not shown
# heavy: GGVDFCGLYHWPICYQGGGGSGGLSGRSDAGSPLGLAGSGGSQVQLQQSGSELKKPGASVKVSCKASGYTFTNYGMNWVKQAPGQGLKWMGWINTYTGEPTYTDDFKGRFAFSLDTSVSTAYLQISSLKADDTAVYFCAAGGFGSSYWYFDVWGQGSLVTVSSASTKGPSVFPLAPSSKSTSGGTAALGCLVKDYFPEPVTVSWNSGALTSGVHTFPAVLQSSGLYSLSSVVTVPSSSLGTQTYICNVNHKPSNTKVDKKVEPKSC
# notes: anti-TROP2 R98A
# B5: PC-19 (bispecific antibody)
# light: not shown
# heavy: B4 heavy with G7A, A140R, F150A
# notes: anti-TROP2 F108A
# B6: PC-23 (bispecific antibody)
# light: not shown
# heavy: B4 heavy with G17V
# notes: anti-TROP2 R98A
# B7: TCE-4 (bispecific antibody)
# light: not shown
# heavy: QVQLQQSGSELKKPGASVKVSCKASGYTFTNYGMNWVKQAPGQGLKWMGWINTYTGEPTYTDDFKGRFAFSLDTSVSTAYLQISSLKADDTAVYFCARGGFGSSYWYADVWGQGSLVTVSSASTKGPSVFPLAPSSKSTSGGTAALGCLVKDYFPEPVTVSWNSGALTSGVHTFPAVLQSSGLYSLSSVVTVPSSSLGTQTYICNVNHKPSNTKVDKKVEPKSC
# B8: TBD-11 (anti-TROP2 Fab, HC R98A) (Fab, V domains shown)
# VH: QVQLQQSGSELKKPGASVKVSCKASGYTFTNYGMNWVKQAPGQGLKWMGWINTYTGEPTYTDDFKGRFAFSLDTSVSTAYLQISSLKADDTAVYFCAAGGFGSSYWYFDVWGQGSLVTVSS
# VL: DIQLTQSPSSLSASVGDRVSITCKASQDVSIAVAWYQQKPGKAPKLLIYSASYRYTGVPDRFSGSGSGTDFTLTISSLQPEDFAVYYCQQHYITPLTFGAGTKVEIKR
# notes: also called TBD-11 (HC R98A mutant)
# B9: TBD-12 (anti-TROP2 Fab, HC G99A) (Fab, V domains shown)
# VH: B8 VH with A98R, G99A
# VL: B8 VL
# B10: TBD-14 (anti-TROP2 Fab, HC F101A) (Fab, V domains shown)
# VH: B8 VH with A98R, F101A
# VL: B8 VL
# B11: TBD-15 (anti-TROP2 Fab, HC G102A) (Fab, V domains shown)
# VH: B8 VH with A98R, G102A
# VL: B8 VL
# B12: TBD-16 (anti-TROP2 Fab, HC S103A) (Fab, V domains shown)
# VH: B8 VH with A98R, S103A
# VL: B8 VL
# B13: TBD-17 (anti-TROP2 Fab, HC S104A) (Fab, V domains shown)
# VH: B8 VH with A98R, S104A
# VL: B8 VL
# notes: also called TBD-17 (HC S104A mutant)
# B14: TBD-20 (anti-TROP2 Fab, HC Y107A) (Fab, V domains shown)
# VH: B8 VH with A98R, Y107A
# VL: B8 VL
# B15: TBD-21 (anti-TROP2 Fab, HC F108A) (Fab, V domains shown)
# VH: B8 VH with A98R, F108A
# VL: B8 VL
# notes: also called TBD-21 (HC F108A mutant)
# B16: TBD-22 (anti-TROP2 Fab, HC D109A) (Fab, V domains shown)
# VH: B8 VH with A98R, D109A
# VL: B8 VL
# notes: also called TBD-22 (HC D109A mutant)
# B17: TBD-23 (anti-TROP2 Fab, HC V110A) (Fab, V domains shown)
# VH: B8 VH with A98R, V110A
# VL: B8 VL
# Tests used:
# Human TROP2 Full length = target: T1, Human TROP2 Full length; assay: cell-based or functional assay
# Cyno TROP2 Full length = target: T2, Cyno TROP2 Full length; assay: cell-based or functional assay
# [1] = target: T3, Human TROP2 ECD (31-274 AA), …; assay: ELISA on immobilized TROP2
# [2] = target: T3, Human TROP2 ECD (31-274 AA), …; assay: ELISA on immobilized TROP2; remark: listed apart in the source
# [3] = target: T3, Human TROP2 ECD (31-274 AA), …; assay: BLI (Octet), dissociation half-life from biotinylated human TROP2 ECD
# [4] = target: T3, Human TROP2 ECD (31-274 AA), …; assay: ELISA: biotinylated TROP2 captured on neutravidin plate, Fab titrated, HRP secondary antibody
# [5] = target: T3, Human TROP2 ECD (31-274 AA), …; assay: BLI (Octet), biotinylated human TROP2 ECD on SAX sensor, Fab 6.25-50 nM
# [6] = target: T3, Human TROP2 ECD (31-274 AA), …; assay: ELISA, ratio of EC50 to that of TBD-1 wt
# [7] = target: T3, Human TROP2 ECD (31-274 AA), …; assay: ELISA, biotinylated TROP2 ECD on neutravidin plate, Fab titrated
# [8] = target: T3, Human TROP2 ECD (31-274 AA), …; assay: ELISA: biotinylated TROP2 captured on neutravidin plate, Fab titrated, HRP secondary antibody; remark: listed apart in the source
# [9] = target: T3, Human TROP2 ECD (31-274 AA), …; assay: ELISA, biotinylated TROP2 ECD on neutravidin plate, Fab titrated; remark: listed apart in the source
# [10] = target: T3, Human TROP2 ECD (31-274 AA), …; assay: BLI (Octet), biotinylated human TROP2 ECD on SAX sensor, Fab 6.25-50 nM; remark: listed apart in the source
# [11] = target: T3, Human TROP2 ECD (31-274 AA), …; assay: BLI (Octet), dissociation half-life from biotinylated human TROP2 ECD; remark: listed apart in the source
# [12] = target: T3, Human TROP2 ECD (31-274 AA), …; assay: ELISA, ratio of EC50 to that of TBD-1 wt; remark: listed apart in the source
binder,measurement,setting,value
B1,H292 Cytotoxicity EC50 (pM),Human TROP2 Full length,> 100000 pM
same,CyTROP2 HEK293 EC50 (pM),Cyno TROP2 Full length,17300 pM
B2,H292 Cytotoxicity EC50 (pM),Human TROP2 Full length,> 100000 pM
same,CyTROP2 HEK293 EC50 (pM),Cyno TROP2 Full length,> 100000 pM
B3,H292 Cytotoxicity EC50 (pM),Human TROP2 Full length,28100 pM
same,CyTROP2 HEK293 EC50 (pM),Cyno TROP2 Full length,35900 pM
B4,EC50,[1],> 1000 nM
same,EC50,[2],419 nM
B5,EC50,[1],> 1000 nM
B6,EC50,[1],> 1000 nM
B7,EC50,[1],2.5 nM
same,EC50,[2],7.29 nM
B8,t1/2,[3],10 min
same,EC50,[4],3.8 nM
same,Kd,[5],3.88 nM
same,Fold shift in EC50 relative to wt,[6],19 fold
same,EC50,[7],3.8 nM
B9,t1/2,[3],39 min
same,EC50,[4],0.2 nM
same,Kd,[5],0.492 nM
same,Fold shift in EC50 relative to wt,[6],1 fold
same,EC50,[7],0.2 nM
B10,t1/2,[3],4 min
same,Kd,[5],18.7 nM
same,Fold shift in EC50 relative to wt,[6],193 fold
same,EC50,[7],38.6 nM
same,EC50,[8],38.6 nM
B11,t1/2,[3],1 min
same,Kd,[5],5.71 nM
same,Fold shift in EC50 relative to wt,[6],361 fold
same,EC50,[7],72.2 nM
same,EC50,[8],72.2 nM
B12,t1/2,[3],103 min
same,Kd,[5],0.211 nM
same,Fold shift in EC50 relative to wt,[6],1 fold
same,EC50,[7],0.2 nM
same,EC50,[8],0.177 nM
B13,EC50,[9],0.4 nM
same,Kd,[10],0.9 nM
same,t1/2,[11],24 min
same,Fold shift in EC50 relative to wt,[12],2 fold
same,EC50,[8],0.432 nM
B14,EC50,[9],52.3 nM
same,Kd,[10],6.34 nM
same,t1/2,[11],10 min
same,Fold shift in EC50 relative to wt,[12],262 fold
same,EC50,[8],52.2 nM
B15,EC50,[9],4.1 nM
same,Kd,[10],4.76 nM
same,t1/2,[11],8 min
same,Fold shift in EC50 relative to wt,[12],20.5 fold
same,EC50,[8],4.11 nM
B16,EC50,[9],1.1 nM
same,Kd,[10],2.35 nM
same,t1/2,[11],33 min
same,Fold shift in EC50 relative to wt,[12],5.5 fold
same,EC50,[8],1.1 nM
B17,EC50,[9],0.2 nM
same,Kd,[10],0.401 nM
same,t1/2,[11],34 min
same,Fold shift in EC50 relative to wt,[12],1 fold
same,EC50,[8],0.236 nM
